# Patent US20240043528A1, “NANOBODY-OGA FUSIONS AND USES THEREOF” (President and Fellows of Harvard College, priority 2020, published 2024)
# Entries after “also recorded” stand apart in the source; their conditions may differ.
# T1: OGT with C-terminal His tag (human, UniProt O15294 1-1046, limits assumed)
# T1 construct: also called OGT-His; pCMV3-OGT-His; not shown: C-terminal His tag
# T1 sequence (looked up): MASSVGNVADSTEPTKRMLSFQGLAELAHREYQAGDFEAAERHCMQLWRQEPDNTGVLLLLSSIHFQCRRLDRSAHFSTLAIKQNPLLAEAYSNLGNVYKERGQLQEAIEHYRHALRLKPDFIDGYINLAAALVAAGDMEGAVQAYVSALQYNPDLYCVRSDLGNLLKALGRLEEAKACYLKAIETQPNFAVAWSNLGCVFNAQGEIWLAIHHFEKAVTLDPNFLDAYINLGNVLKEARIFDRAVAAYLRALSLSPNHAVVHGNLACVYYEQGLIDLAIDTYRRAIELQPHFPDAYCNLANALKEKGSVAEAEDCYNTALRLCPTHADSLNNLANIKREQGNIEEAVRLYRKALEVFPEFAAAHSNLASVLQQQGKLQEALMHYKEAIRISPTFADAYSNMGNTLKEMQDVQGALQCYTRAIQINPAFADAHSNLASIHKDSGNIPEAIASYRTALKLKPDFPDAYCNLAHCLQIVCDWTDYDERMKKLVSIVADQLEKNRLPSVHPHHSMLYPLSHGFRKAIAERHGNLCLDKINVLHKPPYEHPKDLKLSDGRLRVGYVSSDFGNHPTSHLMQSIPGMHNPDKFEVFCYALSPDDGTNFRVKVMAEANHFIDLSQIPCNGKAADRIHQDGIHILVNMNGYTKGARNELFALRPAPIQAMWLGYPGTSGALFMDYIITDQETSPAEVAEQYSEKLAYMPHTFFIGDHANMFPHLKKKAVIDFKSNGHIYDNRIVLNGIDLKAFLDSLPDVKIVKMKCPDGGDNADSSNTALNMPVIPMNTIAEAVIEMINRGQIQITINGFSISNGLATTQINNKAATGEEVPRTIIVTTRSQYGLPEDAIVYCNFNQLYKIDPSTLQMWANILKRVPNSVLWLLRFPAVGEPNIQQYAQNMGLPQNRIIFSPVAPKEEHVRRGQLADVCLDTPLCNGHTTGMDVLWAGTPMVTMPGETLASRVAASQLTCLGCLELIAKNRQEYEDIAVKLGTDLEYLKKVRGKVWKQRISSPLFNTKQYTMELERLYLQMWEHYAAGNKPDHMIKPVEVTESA
# Experiments:
# [1] = tested on: GFP-c-Jun; test: Cycloheximide (CHX) chase of GFP-c-Jun stability; type: cell-based, human; conditions: 50 μM CHX for up to 12 h, HEK 293T cells
# Procedure: HEK 293T cells were transiently transfected with indicated plasmids and treated with DMSO, or Ac45SGlcNAc, or Thiamet-G at the same time if needed. 36-48 h after the transfection, cells were incubated with 50 μM CHX for up to 12 h. At the indicated time points, cells were harvested and lysed with M-PER lysis buffer. Protein expression and global O-GlcNAc level were determined by immunoblot assays. GAPDH protein level was used as the internal loading control.
# [2] = tested on: global O-GlcNAcylation; test: Global O-GlcNAcylation level in whole cell lysate, anti-O-GlcNAc (RL2) immunoblot; type: cell-based, human; conditions: HEK 293T whole cell lysate; OSMI-4b 25 μM for 30 h
# Procedure: After 36-48 h of transfection, cells were harvested and washed with PBS once. Cells were lysed with M-PER lysis buffer containing 1× protease inhibitor cocktail and 10 μM Thiamet-G unless otherwise noted. Protein concentrations were determined by the BCA assay kit (G-Biosciences, 786) on a multi-mode microplate reader FilterMax F3 (Molecular Devices LLC, Sunnyvale, CA).
# (§1) For immunoblotting analysis, proteins were transferred to a nitrocellulose membrane using iBlot (Thermo Scientific). Membranes were blocked with Tris buffered saline containing 0.1% Tween-20 and 5% BSA and incubated with the primary antibodies (1:1000 dilution) and the secondary antibodies (1:10,000 dilution) sequentially. Immunoblot images were captured by Azure Imager C600. Analysis of immunoblots was conducted with Fiji ImageJ. All IR fluorescence western blot images are converted into grayscale images by Fiji ImageJ. The unsaturated exposure of immunoblot images was used for quantification with the appropriate loading controls as standards. Statistical analysis of the data was performed with Prism 8, using data from at least three independent experiments.
# [3] = tested on: endogenous CREB; test: Mass shift assay of O-GlcNAcylation on endogenous CREB (off-target marker); type: cell-based, human; conditions: untargeted off-target marker, HEK 293T cells
# Procedure: as §1
# Purification of GalT1 (Y289L) enzyme and labeling of O-GlcNAcylated proteins with GalNAz were performed according to the procedure of Hsieh-Wilson and co-workers (Thompson, J. W., Griffin, M. E. & Hsieh-Wilson, L. C. Methods for the Detection, Study, and Dynamic Profiling of O-GlcNAc Glycosylation. Methods Enzymol. 2018, 598, 101-135). Briefly, cell samples in 6-well plates or 15-cm dishes were harvested and washed by PBS once. The lysis buffer (PBS with 2% SDS) was added into cell pellets and heated for 5 min at 95° C., followed by the sonication to sheer DNA. Protein concentrations were determined by BCA assay. […]
# [4] = tested on: O-GlcNAcylated proteome; test: Quantitative TMT mass spectrometry of enriched O-GlcNAcylated proteome; type: cell-based, human; conditions: co-expression of GFP-Nup62, versus inactive nGFP-splitOGA(D174N), n=2
# Procedure: Purification of GalT1 (Y289L) enzyme and labeling of O-GlcNAcylated proteins with GalNAz were performed according to the procedure of Hsieh-Wilson and co-workers (Thompson, J. W., Griffin, M. E. & Hsieh-Wilson, L. C. Methods for the Detection, Study, and Dynamic Profiling of O-GlcNAc Glycosylation. Methods Enzymol. 2018, 598, 101-135). Briefly, cell samples in 6-well plates or 15-cm dishes were harvested and washed by PBS once. The lysis buffer (PBS with 2% SDS) was added into cell pellets and heated for 5 min at 95° C., followed by the sonication to sheer DNA. Protein concentrations were determined by BCA assay. Cell lysates were reduced and alkylated with 25 mM DTT at 95° C. for 5 min and 50 mM iodoacetamide at room temperature for 1 h respectively. Proteins were precipitated by the methanol/chloroform solution (aqueous phase:CH3OH:CHCl3=4:4:1) and resuspended in 1% SDS, 20 mM HEPES (pH 7.9) buffer with a concentration of 3.75 mg/mL. For 150 μg proteins, H2O (49 μL), 2.5×GalT labeling buffer (80 μL, final concentrations: 50 mM NaCl, 20 mM HEPES, 2% NP-40, pH 7.9), 100 mM MnCl2 (11 μL), 500 μM UDP-GalNAz (10 μL), 2 mg/mL GalT1 (Y289L) (10 μL) were added into cell lysates orderly. […]
# For quantitative proteomics, after reaction with Biotin-Alkyne probe, proteins were precipitated and resuspended in 400 μL PBS containing 2% SDS. […]
# [5] = target: T1, OGT with C-terminal His tag; test: co-immunoprecipitation with beads against the His tag of OGT from HEK 293T lysates, immunoblot
# Procedure: Overexpressed OGT and its interacting proteins were co-immunoprecipitated by beads against His tag. Whole cell lysates and co-immunoprecipitated proteins were analyzed by immunoblotting assays using the indicated antibodies. Anti-myc and anti-HA blots detect expression of full-length OGA (fl-OGA), N-terminal fragment, and C-terminal fragment, respectively. The data are representative of two biological replicates.
# For immunoprecipitation of proteins with His tag, cells were lysed in a buffer containing 50 mM Tris HCl pH 8.0, 150 mM NaCl, 1% Triton X-100, 5% glycerol, 1× protease inhibitor cocktail and 10 μM Thiamet-G on ice for 20 min. Cell lysates with equal amounts of protein were diluted with wash buffer (50 mM Tris HCl pH 8.0, 150 mM NaCl, 0.01% Tween-20) and incubated with pre-washed His-Tag Dynabeads (Invitrogen, 10103D) at room temperature for 20 min with mixing, following the manufacturer's instructions. After washed 4 times with wash buffer, the enriched proteins were eluted with elution buffer (300 mM Imidazole, 50 mM Tris HCl pH 8.0, 150 mM NaCl, 0.01% Tween-20) on a shaker for 10 min at room temperature.
molecule,measurement,setting,value
CCN=C1N[C@@H]2[C@@H](O)[C@H](O)[C@@H](CO)O[C@@H]2S1 [Thiamet-G],stability / degradation of GFP-c-Jun,[1],attenuated; also recorded: enhanced
"fl-OGA: Full length OGA with a myc tag (SEQ ID NO: 1) (protein, myc tag) MASMQKLISEEDLLMAMEARIRSTVQKESQATLEERESELSSNPAASAGASLEPPAAPAPGEDNPAGAGGAAVAGAAGGARRFLCGVVEGFYGRPWVMEQRKELFRRLQKWELNTYLYAPKDDYKHRMFWREMYSVEEAEQLMTLISAAREYEIEFIYAISPGLDITFSNPKEVSTLKRKLDQVSQFGCRSFALLFDDIDHNMCAADKEVFSSFAHAQVSITNEIYQYLGEPETFLFCPTEYCGTFCYPNVSQSPYLRTVGEKLLPGIEVLWTGPKVVSKEIPVESIEEVSKIIKRAPVIWDNIHANDYDQKRLFLGPYKGRSTELIPRLKGVLTNPNCEFEANYVAIHTLATWYKSNMNGVRKDVVMTDSEDSTVSIQIKLENEGSDEDIETDVLYSPQMALKLALTEWLQEFGVPHQYSSRQVAHSGAKASVVDGTPLVAAPSLNATTVVTTVYQEPIMSQGAALSGEPTTLTKEEEKKQPDEEPMDMVVEKQEETDHKNDNQILSEIVEAKMAEELKPMDTDKESIAESKSPEMSMQEDCISDIAPMQTDEQTNKEQFVPGPNEKPLYTAEPVTLEDLQLLADLFYLPYEHGPKGAQMLREFQWLRANSSVVSVNCKGKDSEKIEEWRSRAAKFEEMCGLVMGMFTRLSNCANRTILYDMYSYVWDIKSIMSMVKSFVQWLGCRSHSSAQFLIGDQEPWAFRGGLAGEFQRLLPIDGANDLFFQPPPLTPTSKVYTIRPYFPKDEASVYKICREMYDDGVGLPFQSQPDLIGDKLVGGLLSLSLDYCFVLEDEDGICGYALGTVDVTPFIKKCKISWIPFMQEKYTKPNGDKELSEAEKIMLSFHEEQEVLPETFLANFPSLIKMDIHKKVTDPSVAKSMMACLLSSLKANGSRGAFCEVRPDDKRILEFYSKLGCFEIAKMEGFPKDVVILGRSL",global O-GlcNAcylation level,[2],global reduction of O-GlcNAc; also recorded: reduced O-GlcNAc on CREB and the whole proteome
same,O-GlcNAcylation level on endogenous CREB,[3],reduced O-GlcNAc on CREB and the whole proteome
same,change of enriched O-GlcNAcylated protein abundance (global proteome),[4],globally decreased O-GlcNAcylated proteins
"split OGA (N2+C3) (enzyme, Two co-expressed fragments) chain 1: MEQKLISEEDLAIAMVQKESQATLEERESELSSNPAASAGASLEPPAAPAPGEDNPAGAGGAAVAGAAGGARRFLCGVVEGFYGRPWVMEQRKELFRRLQKWELNTYLYAPKDDYKHRMFWREMYSVEEAEQLMTLISAAREYEIEFIYAISPGLDITFSNPKEVSTLKRKLDQVSQFGCRSFALLFDDIDHNMCAADKEVFSSFAHAQVSITNEIYQYLGEPETFLFCPTEYCGTFCYPNVSQSPYLRTVGEKLLPGIEVLWTGPKVVSKEIPVESIEEVSKIIKRAPVIWDNIHANDYDQKRLFLGPYKGRSTELIPRLKGVLTNPNCEFEANYVAIHTLATWYKSNMNGVRKDVVMTDSEDSTVSIQIKLENEGSDEDIETDVLYSPQMALKLALTEWLQEFGVPHQYSSR chain 2: MAYPYDVPDYAAIAEKPLYTAEPVTLEDLQLLADLFYLPYEHGPKGAQMLREFQWLRANSSVVSVNCKGKDSEKIEEWRSRAAKFEEMCGLVMGMFTRLSNCANRTILYDMYSYVWDIKSIMSMVKSFVQWLGCRSHSSAQFLIGDQEPWAFRGGLAGEFQRLLPIDGANDLFFQPP",binding result,[5],no binding
